Source: CN111690062A (UNIV FUDAN, dated 2020)

Molecular target: T1, Plasmodium falciparum PfRh5 protein (recombinant, expressed in Sf9 insect cells) (Plasmodium falciparum (恶性疟原虫), UniProt Q8IFM5 25-526, limits assumed)
T1 construct: In the BLI assay the protein was amine-coupled to AR2G sensors; also called 恶性疟PfRh5蛋白; PfRh5蛋白
T1 sequence (looked up): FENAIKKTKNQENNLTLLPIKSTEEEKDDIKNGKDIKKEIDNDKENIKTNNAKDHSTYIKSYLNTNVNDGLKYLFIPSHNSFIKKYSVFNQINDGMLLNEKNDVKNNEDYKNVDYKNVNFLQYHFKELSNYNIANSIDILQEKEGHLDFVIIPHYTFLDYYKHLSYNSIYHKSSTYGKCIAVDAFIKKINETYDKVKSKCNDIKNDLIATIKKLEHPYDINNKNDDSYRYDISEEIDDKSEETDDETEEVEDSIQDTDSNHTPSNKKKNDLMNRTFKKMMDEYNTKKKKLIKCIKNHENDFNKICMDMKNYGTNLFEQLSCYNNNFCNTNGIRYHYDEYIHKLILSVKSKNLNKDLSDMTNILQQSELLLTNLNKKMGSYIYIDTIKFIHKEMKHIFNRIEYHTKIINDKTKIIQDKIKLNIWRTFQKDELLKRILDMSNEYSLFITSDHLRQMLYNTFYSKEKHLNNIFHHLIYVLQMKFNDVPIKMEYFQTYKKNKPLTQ
Experiment: BLI (Octet-Red96) at 37°C; PfRh5 amine-coupled to AR2G sensor; G9 as analyte at 1.2-100 nM in 3-fold dilutions; 1:1 fit

B1: G9 antigen-binding fragment (Fab), fully human, against Plasmodium falciparum PfRh5 (Fab, V domains shown)
VH: EVQLVQSGGGLVQPGGSLRLSCAASGFTFDDYAMHWVRQAPGKGLEWVAVIWYDGSNKYYADSVKGRFTISRDNSKNTLYLQMNSLRAEDTAVYYCAREHIDDPAMVPSPPAFDIWGQGTMVTVSS
VL: EIVLTQSPATLSLSPGERATLSCRASQSVSSYLAWYQQKPGQAPRLLIYDASNRATGIPARFSGSGSGTDFTLTISSLEPEDFATYYCQQSYSTPRTFGQGTKLEIK
notes: also called 抗体G9; 克隆G9
B1 gave a Kd of 4.9 nM.
